Laboratory results from the nanobody polyreactivity screen of Harvey et al. (2022).

Experiment: yeast display, Sf9 membrane polyspecificity reagent, FACS + sequencing; frameworks hold sequencing errors
Outline: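 After 36–48 hours of galactose induction, yeast (Saccharomyces cerevisiae BJ5465) displaying a synthetic nanobody library were stained at 4 °C for 1 hour with 10% biotinylated, detergent-solubilized Sf9 membrane reagent. Streptavidin microbeads enriched the stained cells before FACS sorting into low and high (top ~1%) gates on anti-HA and streptavidin fluorescence. Each clone's polyreactivity label reflects its gate of origin.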

| Sequence | polyreactivity (PSR sort gate) |
| --- | --- |
| QVQLVESGGGLVQAGGSLRLSCAASGLIFHNNAMGWYRQAPGKERELVARITRSCGSTYYADSVKGRFTISRDNAKNTFYLQMNSLKPEDTAVYYCATDALFDSGGMDYWGQGTQVTVSS | low polyreactivity |
| QVQLVESGGGLVQAGGSLRLSCAASGLIFIAYAMGWYRQAPGKERELVAAISSSGGSTYYADSVKGPFTISRDNAKNTFYLQMNSLKPEDTGVYYCAADRFDWGTGRYGYWVQGTQVTVSS | low polyreactivity |
| QVQLVESGGGLVQAGGSLRLSCAASGLIFIAYSMGWYRQAPGKEREFVAAITWNGVSTYYADSVKGRFTISRDNAKNTVYLQMNSLKPEDTAVYDCNADYDFSPWAYEYWGQGTQVTVSS | high polyreactivity |
| QVQLVESGGGLVQAGGSLRLSCAASGLIFIKNAMGWYRQAPGKERELVAAITRGSSTTYADSVKGRFTISRDNAKNTVYLQMNSLKPEDPAVYYCAAQYGGGYLKPYRREYWGQGTQVTVSS | high polyreactivity |
| QVQLVESGGGLVQAGGSLRLSCAASGLIFKKYTMGWYRQAPGKERELVASISKSGGSTYYADSVKGRFTISRDNAKNTVYLLMNSLKPDDTAVYYCAVGSTDRVSAQGSYFTYDYWGQGTQVNVSS | low polyreactivity |
| QVQLVESGGGLVQAGGSLRLSCAASGLIFKSYAMGWYRQAPGKERELVATISSSGSTNYADSVKGRFTISRDNAKNTVYLQMNSLKPEDTAVYYCNADDEVWWWIYDYWGQGTQVTVSS | low polyreactivity |
| QVQLVESGGGLVQAGGSLRLSCAASGLIFKVYAMGWYRQAPWKERELVAAITYSGGSTDYADSVKGRFTISRDNAKNTVYLQMNSLTPEDTAVYYCNVEKVGHVNSYGYDYWGQGTQVNVSS | low polyreactivity |
| QVQLVESGGGLVQAGGSLRLSCAASGLIFKYNAMGWYRQAPGKERELVAAISTSGGSTYYADSVKGRFTISRDNAKNTVYLQMNSLKPEDTAVYYCNAVAGRPFRYYYWGQGTQVTVSS | high polyreactivity |
| QVQLVESGGGLVQAGGSLRLSCAASGLIFKYNDMGWYRQAPGTEREFVAAISWRGGRTYYADSVKGRFTISRDNEKNTVYLQMNSLKPEDTAVYYCNAGYRIAQFPSPHIAYYGYGYWGQGTQVTVSS | high polyreactivity |
| QVQLVESGGGLVQAGGSLRLSCAASGLIFLWYVMGWYRQAPGKEREFVAAISWNGGGTYYADSVKGRFTISRDNAKNTVYLQMNSLKPDDTAVYYCAAQTYSNDYWGQGTQVTVSS | low polyreactivity |
| QVQLVESGGGLVQAGGSLRLSCAASGLIFNIYAMGWYRQAPGKERELVAAISKSGGSTYYADSVKGRFTISRDNAKNTVYLQMNSLKPEDTAVYYCAAPYLVRSQRYYYWGQGTQVTVSS | high polyreactivity |
| QVQLVESGGGLVQAGGSLRLSCAASGLIFPRYGMGWYRQAPGKERELVAAISWSGGSTYYADSVKGRFTISRDNAKNTVYLQMNSLKPEDTAVYYCAVLSNRGVYGSDYWGQGTQVTVSS | high polyreactivity |
| QVQLVESGGGLVQAGGSLRLSCAASGLIFPSYAMGWYRQAPGKERELVATINRGSRTNYADSVKGRFTISRDNAKNTVYLQMNSLKPEDTAVYYCAAHYTTFIPSPDGDYLGQGTQVTVSS | low polyreactivity |
| QVQLVESGGGLVQAGGSLRLSCAASGLIFPYYALGWYRQAPGKERELVAAISWRGGNTYYADSVKGRFTISRDNAKNTVYLQMNSLKPEDTAVYYCNTVQYRNEMGYWGQGTQVTVSS | high polyreactivity |
| QVQLVESGGGLVQAGGSLRLSCAASGLIFQHNAMGWYRQAPGKEMELVAAISRSAGSTYYADSVKGRFTISRDKAKNTVYLQMNSLKPEDTAVYYCARQYGYQPVRYGYWGQGTQVTVSS | low polyreactivity |
| QVQLVESGGGLVQAGGSLRLSCAASGLIFQYYAMGWYRQAPGKERELVAAISGSGVRSYYADSVKGRFTTSRDNAKNTVYLQMNSLKPEDTAVYYCNTLRQDIIRGDYWGQGTHVTVSS | high polyreactivity |
| QVQLVESGGGLVQAGGSLRLSCAASGLIFQYYAMGWYRQAPGKERELVASISGSGSSTYYADSVKGRFTISRDNEKNTVYLQMYSLKPEDTAVYYCAAGWGRGWYDYWGQGTQVTVSS | high polyreactivity |
| QVQLVESGGGLVQAGGSLRLSCAASGLIFRPYAMGGYRQAPGKARELVAAITSGGSTDYADSLKGRFTISRDNAKNTVYLQMNSLNPEDTAVFYCNADFYPHDGYPWQGDYDYWGQGTQVTVSS | low polyreactivity |
| QVQLVESGGGLVQAGGSLRLSCAASGLIFRRYAMGWYRQAPGKERELVAAINLSGGSTYYADSVKGRFTISRDNAKNTVYLQMNSLKPEDTAVYYCNAVSVYSLPRVGGRYDYWGQGTQVTVSS | high polyreactivity |
| QVQLVESGGGLVQAGGSLRLSCAASGLIFRRYTMGWYGQGPGKERELVAAITSSGGNTYYADSVKGRFTISRDNAKNTVYLQMNSLKPEDTAVYYCNNPGTHNYYYWGQGTQVTVSS | high polyreactivity |
| QVQLVESGGGLVQAGGSLRLSCAASGLIFSAYDMGWYRQAPGKERELVASITSGGSTYYADSVKGRFTISRDNAKNTVYLQMNSLKPEDTAVYYCNADGGWYPYRWRYIEGEYWGQGTQVTVSS | low polyreactivity |
| QVQLVESGGGLVQAGGSLRLSCAASGLIFSDNAMGWYRQARGKEREFVASISDSGTTTYYADSVKGRFTISRDNAKNTVYLQMNSLKPEDTAVYDCNARPGQSGARFGYWGQGTQVTVSS | high polyreactivity |

| Sequence | polyreactivity (PSR sort gate) |
| --- | --- |
| QVQLVESGGGLVQAGGSLRLSCAASGLIFSFYAMGWYRKAPGKERELVATISNTDSTNYADSVKGRFTISRDNAKNTVYLQMNRLKPEDTAVYYCAADVWDGRYLYTGVYDYWGQGTQVTVSS | low polyreactivity |
| QVQLVESGGGLVQAGGSLRLSCAASGLIFSKNVMGRYRQAPGKERELVAAISQRGGSTYYADSVKGRFTISRDNAKNTVYLQMNSLKPEDTAVYYCAADNTVSHEDYWGQGTQVTVSS | high polyreactivity |
| QVQLVESGGGLVQAGGSLRLSCAASGLIFSRNAMGRYRQAPGKERELVAAITTGGSTYYADSVKGRFTISRDNAKNTVYLQMNSLKPEDTAVYYCAAAPGYIYEYWGQGTQVTVSS | low polyreactivity |
| QVQLVESGGGLVQAGGSLRLSCAASGLIFSRYAMGWYRQAPGKERELVAAITYRTVRTYYADSVKGRFTISRDNAKNTVYLQMNSLKPEDTAVYYCAADSARQRDYWGQGTQVTVSS | high polyreactivity |
| QVQLVESGGGLVQAGGSLRLSCAASGLIFSSNAMGWYRQAPGKERELVAAISSRGGRTYYADSVKGRFTISRDNAKNTVYLQMNSLKPEDTAVYYCAKYFTEVSRHTYDYWGQVTQVTVSS | high polyreactivity |
| QVQLVESGGGLVQAGGSLRLSCAASGLIFSSNVMGWYRQAPGKERQLVAAIRQRGGSTRYADSVKGRFTISRDNAKNTVYLQMNSLKPEDTEVYYCAADTYYSHSWDSYDYWGQGTQVTVSS | low polyreactivity |
| QVQLVESGGGLVQAGGSLRLSCAASGLIFSTYAMGWYRQAPGKERELVASISSSGGSTYYADSVKGRFTISRDNAKNTVYLQMNSLKPEDTAVYYCAAVTKRYQPTYYITYGYWGQGTQVTVSS | high polyreactivity |
| QVQLVESGGGLVQAGGSLRLSCAASGLIFSYSALAWYRQAPGKERELVGSMSTSGGNTNYADSVKGRFTISRDNAKNTVYVQMNSVKPVDTAVYYCAAGIGKQYHTGYPTAGRKYGYWGQGTQVTVSS | high polyreactivity |
| QVQLVESGGGLVQAGGSLRLSCAASGLIFSYYAMGWYRQAPGKERELVAAITGSGGTTYYADSVKGRFTISRDNAKNTVYLQMNSLKPEDTAVYYCATPPPEVWQRWYREYDYWGQGTQVTVSS | low polyreactivity |
| QVQLVESGGGLVQAGGSLRLSCAASGLIFSYYAMGWYRQAPGKERELVGAITGSGGSTYYADSVKGRFTISRDNAKNTVYLQMNSLKPEDTAVYYCAAGRYAYTLSRKYDYWGQGTQVTVSS | high polyreactivity |
| QVQLVESGGGLVQAGGSLRLSCAASGLIFSYYPMGWYRQAPGKERELVAAITGSGGTTYYADSVKGRFTISRDNAKNTVYLQMNSLKPEDTAVYYCATSPPEVWQRWYREYDYWGQVTQVTVSS | low polyreactivity |
| QVQLVESGGGLVQAGGSLRLSCAASGLIFSYYVMGWYRPAPGKERELVAAINRSGGSTYYADSVKGRFTISRDNAKNTVYLQMNSLKPEDTAVYYCAAEKLGTNFEYWGQGTQVTVSS | high polyreactivity |
| QVQLVESGGGLVQAGGSLRLSCAASGLIFTDYAMGWYRQAPGKDRELVATITARGGDTYYADSVKGRFTISRDNAKNTVYLQMNSLKPEDTAVYYCAAEYLSGGEAGMYYWGQGTQVTVSS | low polyreactivity |
| QVQLVESGGGLVQAGGSLRLSCAASGLIFTRYTMGWYRQAPGKERELVAGISWSGGRTYYADSVKGRFTISRDKAKYTVYLQMNSLKPEDTAVYYCAADSYYSRAYDYWGQGTQVTVSS | high polyreactivity |
| QVQLVESGGGLVQAGGSLRLSCAASGLIFTSYAMGWYRQATGKERELVAAISGSAASTYYADSVKGRFTISRDNAKNTVYLQMNSLKPEDTAVYYCAADYQGYTPSDGRYYWGQGTQVTVSS | low polyreactivity |
| QVQLVESGGGLVQAGGSLRLSCAASGLIFTVNTMGWYRQAPGKERELVATIHTIGDGTNYADSVKGRFTISRDNAKNTVYLQMNSLKPEDTAVYYCAAYAGSVRPGDLYGYDYWGQGTQVTVSS | low polyreactivity |
| QVQLVESGGGLVQAGGSLRLSCAASGLIFTYNAMGWYRQAPGKERELVASISWGGGSTYYADSVKGRFTISRDNAKHTVYLQMHSLKPEDTAVYYCNAKFKTVHTYGDTIFDRYDYWGQGTQVTVSS | low polyreactivity |
| QVQLVESGGGLVQAGGSLRLSCAASGLIFVPYAMGWYIQAPGKERELVAAISRSGGSTYYADSVKGRFTISRDNAKNTVYLQMNSLKPEDTAVYYFATLNYYGEVEYWGQGTQVTVSS | high polyreactivity |
| QVQLVESGGGLVQAGGSLRLSCAASGLIFVRYAMGWYRQAPGKERELVADISTSDGSTRYADSVKGRFTISRDNEKNTVYLQMNSLKPEDTAVYYCAGGSEYYSYGGVRFSFYYWGQGTQVTVSS | low polyreactivity |
| QVQLVESGGGLVQAGGSLRLSCAASGLIFVSYAMGWYRQEPGKERELVASITDSDSSTYYADSVKGRFTISRDNAKNTVYLQMNSLKPEDTAVYSCATGGRTEIWYPTLDYWGQGTQVTVSS | low polyreactivity |
| QVQLVESGGGLVQAGGSLRLSCAASGLIFVYNDMGWYRQAPGKERELVAGITGTGGNTYYADSVKGRFTISRDNAKNTVYLQMNSLKPEDTAVYYCAAQRSVFKSFRTTYVRYDYWGQGTQVTVSS | high polyreactivity |
